B1: PR006492 (antibody, human IgG1, kappa, V domains shown)
VH: QVQLVQSGAEVKKPGASVKVSCKASGYTFAGYYMYWVRQAPGQGLEWMGWINPDSGAPTYAQKFQGRVTMTRDTSISTAYMELSRLRSDDTAVYYCAREKIYYGSGNYYPSFDYWGQGTLVTVSS
VL: DIQLTQSPSFLSASVGDRVTITCRASQGISSYLAWYQQKPGKAPKLLIYAASTLQSGVPSRFSGSGSGTEFTLTISSLQPEDFATYYCQQLESYPWTFGQGTKVEIKR
notes: PR003379 variant L:N92E; human IgG1 L234A, L235A, G237A
B2: PR006507 (antibody, human IgG1, kappa, V domains shown)
VH: QVQLVQSGAEVKKPGASVKVSCKASGYTFAGYYMYWVRQAPGQGLEWMGWINPDSGAPTYAQKFQGRVTMTRDTSISTAYMELSRLRSDDTAVYYCAREKIYYGSGNYYPSFDYWGQGTLVTVSS
VL: DIQLTQSPSFLSASVGDRVTITCRASQGISSYLAWYQQKPGKAPKLLIYAASTLQSGVPSRFSGSGSGTEFTLTISSLQPEDFATYYCQQLNEYPWTFGQGTKVEIKR
notes: PR003379 variant L:S93E; human IgG1 L234A, L235A, G237A
B3: PR006493 (antibody, human IgG1, kappa, V domains shown)
VH: QVQLVQSGAEVKKPGASVKVSCKASGYTFAGYYMYWVRQAPGQGLEWMGWINPDSGAPTYAQKFQGRVTMTRDTSISTAYMELSRLRSDDTAVYYCAREKIYYGSGNYYPSFDYWGQGTLVTVSS
VL: DIQLTQSPSFLSASVGDRVTITCRASQGISSYLAWYQQKPGKAPKLLIYAASTLQSGVPSRFSGSGSGTEFTLTISSLQPEDFATYYCQQLLSYPWTFGQGTKVEIKR
notes: PR003379 variant L:N92L; human IgG1 L234A, L235A, G237A
B4: PR006513 (antibody, human IgG1, kappa, V domains shown)
VH: QVQLVQSGAEVKKPGASVKVSCKASGYTFAGYYMYWVRQAPGQGLEWMGWINPDSGAPTYAQKFQGRVTMTRDTSISTAYMELSRLRSDDTAVYYCAREKIYYGSGNYYPSFDYWGQGTLVTVSS
VL: DIQLTQSPSFLSASVGDRVTITCRASQGISSYLAWYQQKPGKAPKLLIYAASTLQSGVPSRFSGSGSGTEFTLTISSLQPEDFATYYCQQLNQYPWTFGQGTKVEIKR
notes: PR003379 variant L:S93Q; human IgG1 L234A, L235A, G237A
B5: PR006505 (antibody, human IgG1, kappa, V domains shown)
VH: QVQLVQSGAEVKKPGASVKVSCKASGYTFAGYYMYWVRQAPGQGLEWMGWINPDSGAPTYAQKFQGRVTMTRDTSISTAYMELSRLRSDDTAVYYCAREKIYYGSGNYYPSFDYWGQGTLVTVSS
VL: DIQLTQSPSFLSASVGDRVTITCRASQGISSYLAWYQQKPGKAPKLLIYAASTLQSGVPSRFSGSGSGTEFTLTISSLQPEDFATYYCQQLNIYPWTFGQGTKVEIKR
notes: PR003379 variant L:S93I; human IgG1 L234A, L235A, G237A
B6: PR006503 (antibody, human IgG1, kappa, V domains shown)
VH: QVQLVQSGAEVKKPGASVKVSCKASGYTFAGYYMYWVRQAPGQGLEWMGWINPDSGAPTYAQKFQGRVTMTRDTSISTAYMELSRLRSDDTAVYYCAREKIYYGSGNYYPSFDYWGQGTLVTVSS
VL: DIQLTQSPSFLSASVGDRVTITCRASQGISSYLAWYQQKPGKAPKLLIYAASTLQSGVPSRFSGSGSGTEFTLTISSLQPEDFATYYCQQLGSYPWTFGQGTKVEIKR
notes: PR003379 variant L:N92G; human IgG1 L234A, L235A, G237A
B7: PR006501 (antibody, human IgG1, kappa, V domains shown)
VH: QVQLVQSGAEVKKPGASVKVSCKASGYTFAGYYMYWVRQAPGQGLEWMGWINPDSGAPTYAQKFQGRVTMTRDTSISTAYMELSRLRSDDTAVYYCAREKIYYGSGNYYPSFDYWGQGTLVTVSS
VL: DIQLTQSPSFLSASVGDRVTITCRASQGISSYLAWYQQKPGKAPKLLIYAASTLQSGVPSRFSGSGSGTEFTLTISSLQPEDFATYYCQQLQSYPWTFGQGTKVEIKR
notes: PR003379 variant L:N92Q; human IgG1 L234A, L235A, G237A
B8: PR006506 (antibody, human IgG1, kappa, V domains shown)
VH: QVQLVQSGAEVKKPGASVKVSCKASGYTFAGYYMYWVRQAPGQGLEWMGWINPDSGAPTYAQKFQGRVTMTRDTSISTAYMELSRLRSDDTAVYYCAREKIYYGSGNYYPSFDYWGQGTLVTVSS
VL: DIQLTQSPSFLSASVGDRVTITCRASQGISSYLAWYQQKPGKAPKLLIYAASTLQSGVPSRFSGSGSGTEFTLTISSLQPEDFATYYCQQLNFYPWTFGQGTKVEIKR
notes: PR003379 variant L:S93F; human IgG1 L234A, L235A, G237A
B9: PR006512 (antibody, human IgG1, kappa, V domains shown)
VH: QVQLVQSGAEVKKPGASVKVSCKASGYTFAGYYMYWVRQAPGQGLEWMGWINPDSGAPTYAQKFQGRVTMTRDTSISTAYMELSRLRSDDTAVYYCAREKIYYGSGNYYPSFDYWGQGTLVTVSS
VL: DIQLTQSPSFLSASVGDRVTITCRASQGISSYLAWYQQKPGKAPKLLIYAASTLQSGVPSRFSGSGSGTEFTLTISSLQPEDFATYYCQQLNTYPWTFGQGTKVEIKR
notes: PR003379 variant L:S93T; human IgG1 L234A, L235A, G237A
B10: PR006509 (antibody, human IgG1, kappa, V domains shown)
VH: QVQLVQSGAEVKKPGASVKVSCKASGYTFAGYYMYWVRQAPGQGLEWMGWINPDSGAPTYAQKFQGRVTMTRDTSISTAYMELSRLRSDDTAVYYCAREKIYYGSGNYYPSFDYWGQGTLVTVSS
VL: DIQLTQSPSFLSASVGDRVTITCRASQGISSYLAWYQQKPGKAPKLLIYAASTLQSGVPSRFSGSGSGTEFTLTISSLQPEDFATYYCQQLNLYPWTFGQGTKVEIKR
notes: PR003379 variant L:S93L; human IgG1 L234A, L235A, G237A
B11: PR006494 (antibody, human IgG1, kappa, V domains shown)
VH: QVQLVQSGAEVKKPGASVKVSCKASGYTFAGYYMYWVRQAPGQGLEWMGWINPDSGAPTYAQKFQGRVTMTRDTSISTAYMELSRLRSDDTAVYYCAREKIYYGSGNYYPSFDYWGQGTLVTVSS
VL: DIQLTQSPSFLSASVGDRVTITCRASQGISSYLAWYQQKPGKAPKLLIYAASTLQSGVPSRFSGSGSGTEFTLTISSLQPEDFATYYCQQLTSYPWTFGQGTKVEIKR
notes: PR003379 variant L:N92T; human IgG1 L234A, L235A, G237A
B12: PR001303 (APX005) (antibody, human IgG1, kappa)
heavy: not shown
light: DIQMTQSPSSLSASVGDRVTIKCQASQSISSRLAWYQQKPGKPPKLLIYRASTLASGVPSRFSGSGSGTDFTLTISSLQPEDVATYYCQCTGYGISWPIGGGTKVEIKRTVAAPSVFIFPPSDEQLKSGTASVVCLLNNFYPREAKVQWKVDNALQSGNSQESVTEQDSKDSTYSLSSTLTLSKADYEKHKVYACEVTHQGLSSPVTKSFNRGEC
notes: CD40 positive control antibody

Key:
human CD40 on cells [1] = molecular target: T1, human CD40 on cells (human, UniProt P25942 21-277); test: FACS, CHO-K1/hCD40 cells
T1 construct: whole, on cells; The cell line used is named in each row's assay; also called hCD40; TNFRSF5
Source text: (§1) Flow cytometry (FACS) was used to detect the binding ability of the CD40 antibody to cells, such as, CHO-K1/hCD40 highly expressing human CD40 (constructed by Beijing Kyinno Biotechnology), CHO-K1/cyCD40 highly expressing cynomolgus monkey CD40 (constructed by Beijing Kyinno Biotechnology) and lymphoma cell highly expressing human CD40, Raji (ATCC, #CCL-86). Specifically, the cells were digested and resuspended with complete medium (F-12K for CHO-K1 cells; and RPMI-1640 for Raji cells); and the cells were adjusted to a cell density of 1×10⁶ cells/mL. The cells were seeded in a 96-well V-bottom plate (Corning, #3894) at 100 μL/well, and the antigen binding protein to be tested at 2x final concentration was then added at 100 μL/well and mixed evenly, with the highest final concentration of the antigen binding protein of 300 nM, a total of 8 concentrations, and 5-fold concentration gradient dilution. hIgG (Crownbio, #C0002) was used as a negative control, and the positive control molecule was the molecule in Table 1-5. The cells were incubated at 4° C. for 1 hours in the dark. After the incubation, the cells were rinsed twice by adding pre-chilled PBS at 100 μL/well, and centrifuged at 500 g at 4° C. for 5 minutes, and the supernatant was discarded. Then, a fluorescent secondary antibody (goat anti-human IgG (H+L) secondary antibody, Alexa Fluor® 488 conjugate, Invitrogen, #A11013, 1:1000 dilution) was added at 100 µL/well, and the cells were incubated at 4° C. for 30 minutes in the dark. The cells were washed twice with pre-chilled PBS at 200 μL/well, and centrifuged at 500 g at 4° C. for 5 minutes, and the supernatant was discarded. Finally, the cells were resuspended in pre-chilled PBS at 200 μL/well. The fluorescence signal values were read using a BD FACS CANTOII flow cytometer or ACEA NovoCyte flow cytometer, and the data were processed and analyzed using FlowJo v10 software (FlowJo, LLC).
(§2) Data processing and graphical analysis were performed using GraphPad Prism 8 software. The binding curve of the antibody to the target cell and parameters, such as EC50 value were obtained by four-parameter nonlinear fitting.

human CD40 on cells [2] = molecular target: T1, human CD40 on cells; test: FACS, Raji cells
Source text: as §1, §2

[3] = molecular target: T2, cynomolgus monkey CD40 on cells (cynomolgus monkey, UniProt G7PG38 21-278); test: FACS, CHO-K1/cyCD40 cells
T2 construct: also called cyCD40; CHO-K1/cyCD40
Source text: as §1, §2

T1 sequence (P25942 21-277): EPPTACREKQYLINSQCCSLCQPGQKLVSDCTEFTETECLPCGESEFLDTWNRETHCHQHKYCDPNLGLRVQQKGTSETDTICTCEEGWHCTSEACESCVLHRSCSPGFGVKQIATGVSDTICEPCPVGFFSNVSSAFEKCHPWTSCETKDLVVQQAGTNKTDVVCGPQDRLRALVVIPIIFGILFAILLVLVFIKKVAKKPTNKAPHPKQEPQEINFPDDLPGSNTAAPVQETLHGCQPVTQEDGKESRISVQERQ
T2 sequence (G7PG38 entry or part of it limits assumed): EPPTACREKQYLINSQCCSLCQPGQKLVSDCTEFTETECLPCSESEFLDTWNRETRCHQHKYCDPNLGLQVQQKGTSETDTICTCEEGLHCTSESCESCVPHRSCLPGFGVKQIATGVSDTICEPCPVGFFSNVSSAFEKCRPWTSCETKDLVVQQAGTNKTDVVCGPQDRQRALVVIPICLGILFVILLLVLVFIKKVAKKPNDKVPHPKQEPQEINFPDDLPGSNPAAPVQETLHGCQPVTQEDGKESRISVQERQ

| Binder | EC50 (human CD40 on cells [1]) | Maximum MFI (human CD40 on cells [1]) | EC50 (human CD40 on cells [2]) | Maximum MFI (human CD40 on cells [2]) | EC50 [3] | Maximum MFI [3] |
| --- | --- | --- | --- | --- | --- | --- |
| B1 | 8.87 nM | 92300 MFI | 0.418 nM | 9070 MFI | 6.26 nM | 52200 MFI |
| B2 | 5.58 nM | 81800 MFI | 0.384 nM | 12300 MFI | 5.01 nM | 49300 MFI |
| B3 | 5.26 nM | 83400 MFI | 0.377 nM | 9350 MFI | 4.06 nM | 48900 MFI |
| B4 | 7.51 nM | 89200 MFI | 0.373 nM | 12000 MFI | 3.56 nM | 40200 MFI |
| B5 | 6.08 nM | 82700 MFI | 0.336 nM | 11900 MFI | 4.62 nM | 48100 MFI |
| B6 | 6.07 nM | 84500 MFI | 0.333 nM | 12200 MFI | 3.99 nM | 49600 MFI |
| B7 | 5.29 nM | 91000 MFI | 0.352 nM | 9000 MFI | 4.19 nM | 48200 MFI |
| B8 | 5.85 nM | 82800 MFI | 0.388 nM | 12100 MFI | 4.5 nM | 47300 MFI |
| B9 | 5.18 nM | 81600 MFI | 0.424 nM | 12100 MFI | 4.55 nM | 45800 MFI |
| B10 | 5.51 nM | 79600 MFI | 0.371 nM | 12200 MFI | 4.69 nM | 45300 MFI |
| B11 | 8.73 nM | 98800 MFI | 0.328 nM | 9180 MFI | 4.04 nM | 49600 MFI |
| B12 | 2.83 nM | 26000 MFI | 0.0347 nM | 2790 MFI | 4.72 nM | 93600 MFI |

— patent US20250215100A1 (HARBOUR BIOMED SHANGHAI, published 2025)
